For assay [1], the system named is retinal ganglion cells (RGCs). Kind of assay: Synapse assay: co-localized Bassoon/Homer synaptic puncta by immunocytochemistry. Format: cell-based, Sprague-Dawley rat. As to conditions: 32 μM GBP added together with UCM. The text has this:
(§1) Retinal Ganglion Cells: Retinal ganglion cells (RGCs) were purified by sequential immuno-panning from P7 (postnatal day 7) Sprague-Dawley rat retinas (Charles River, Wilmington, Mass.) of either sex as previously described (Winzeler A, Wang J T., Cold Spring Harbor Protocols, 2013; 643-652). Briefly, retinas were dissected and dissociated with papain (6 U/mL, Worthington, Burlingame, Calif.). Dissociated cells were panned first with Bandeiraea Simplicifolia Lectin I (BSL, Vector laboratories, Burlingame, Calif.) coated petri dishes to remove immune cells, cell debris and fibroblasts. The unbound cells were transferred to a petri dish coated with anti-Thy1 (clone T11D7) antibody for specific isolation of RGCs. The purified RGCs were gently trypsinized and re-plated onto poly-D-Lysine (PDL) and laminin-coated glass coverslips in 24-well plates (35,000 cells/coverslip). […]
Synapse formation was assessed by immunocytological analyses of the co-localization of pre-(Bassoon) and post-synaptic (Homer) markers, and electrophysiology. […] Morphologically healthy single cells that were at least two cell diameters from their nearest neighbor were identified randomly by DAPI fluorescence. […]

Assay [2] relates to retinal ganglion cells (RGCs). Kind of assay: Neurite outgrowth assay under growth-inhibiting conditions (CSPG, Nogo-A, MBP). It is filed as cell-based, Sprague-Dawley rat.
Source text: as §1, with “RGCs.” for “RGCs. The purified RGCs were gently trypsinized and re-plated onto poly-D-Lysine (PDL) and laminin-coated glass coverslips in 24-well plates (35,000 cells/coverslip).”
To test neurite outgrowth under pathologic (i.e. growth-inhibiting) culture conditions, the RGCs (1,500 cells/coverslip) were seeded onto coverslips that were coated with various concentrations of chondroitin sulfate proteoglycan (CSPG, EMD Millipore, Billerica, Mass.), Nogo-A (R&D Systems, Minneapolis, Minn.) or in the presence of soluble myelin basic protein (MBP, 10 ug/mL, Sigma-Aldrich, St. Louis, Mo.). […] At least 30 cells per condition were imaged and analyzed per experiment and the results presented are the average of 2-3 independent experiments. Neuronal morphology was analyzed using neurite outgrowth application module in Metamorph software (Molecular Devices). […]

For the molecule `NCC1(CC(=O)O)CCCCC1` [GBP, Gabapentin], the “UCM-induced synapse formation in the presence of gabapentin” value in assay [1] is “blocked the synaptogenic factors”.

B1: Nogo-A: myelin protein Nogo-A (R&D Systems), growth-inhibiting coating (protein, UniProt Q9NQC3 1-1192, looked up)
Reticulon-4: MEDLDQSPLVSSSDSPPRPQPAFKYQFVREPEDEEEEEEEEEEDEDEDLEELEVLERKPAAGLSAAPVPTAPAAGAPLMDFGNDFVPPAPRGPLPAAPPVAPERQPSWDPSPVSSTVPAPSPLSAAAVSPSKLPEDDEPPARPPPPPPASVSPQAEPVWTPPAPAPAAPPSTPAAPKRRGSSGSVDETLFALPAASEPVIRSSAENMDLKEQPGNTISAGQEDFPSVLLETAASLPSLSPLSAASFKEHEYLGNLSTVLPTEGTLQENVSEASKEVSEKAKTLLIDRDLTEFSELEYSEMGSSFSVSPKAESAVIVANPREEIIVKNKDEEEKLVSNNILHNQQELPTALTKLVKEDEVVSSEKAKDSFNEKRVAVEAPMREEYADFKPFERVWEVKDSKEDSDMLAAGGKIESNLESKVDKKCFADSLEQTNHEKDSESSNDDTSFPSTPEGIKDRSGAYITCAPFNPAATESIATNIFPLLGDPTSENKTDEKKIEEKKAQIVTEKNTSTKTSNPFLVAAQDSETDYVTTDNLTKVTEEVVANMPEGLTPDLVQEACESELNEVTGTKIAYETKMDLVQTSEVMQESLYPAAQLCPSFEESEATPSPVLPDIVMEAPLNSAVPSAGASVIQPSSSPLEASSVNYESIKHEPENPPPYEEAMSVSLKKVSGIKEEIKEPENINAALQETEAPYISIACDLIKETKLSAEPAPDFSDYSEMAKVEQPVPDHSELVEDSSPDSEPVDLFSDDSIPDVPQKQDETVMLVKESLTETSFESMIEYENKEKLSALPPEGGKPYLESFKLSLDNTKDTLLPDEVSTLSKKEKIPLQMEELSTAVYSNDDLFISKEAQIRETETFSDSSPIEIIDEFPTLISSKTDSFSKLAREYTDLEVSHKSEIANAPDGAGSLPCTELPHDLSLKNIQPKVEEKISFSDDFSKNGSATSKVLLLPPDVSALATQAEIESIVKPKVLVKEAEKKLPSDTEKEDRSPSAIFSAELSKTSVVDLLYWRDIKKTGVVFGASLFLLLSLTVFSIVSVTAYIALALLSVTISFRIYKGVIQAIQKSDEGHPFRAYLESEVAISEELVQKYSNSALGHVNCTIKELRRLFLVDDLVDSLKFAVLMWVFTYVGALFNGLTLLILALISLFSVPVIYERHQAQIDHYLGLANKNVKDAMAKIQAKIPGLKRKAE
With B1, the neurite growth inhibited result in assay [2] (at 2 μg/cm^2 coating) was “more than 50%”. Further, the “coating concentration from which neurite outgrowth is hindered/blocked” value in assay [2] (coated coverslips) was found to be 1 μg/cm^2.

The values above are taken from US20160158293A1, “Treatment of Ocular Conditions Using Progenitor Cells” (JANSSEN BIOTECH, INC., priority 2014, published 2016).
